± gives the uncertainty stated by the source.
B1: SWI/SNF complex subunit SMARCC2, residues 599 to 641; numbered along this chain, Q8TAQ2 (parent)
chain: REWTEQETLLLLEALEMYKDDWNKVSEHVGSRTQDECILHFLR
B2: Zinc finger homeobox protein 4, residues 2183 to 2238; numbered along this chain, Q86UP3 (parent)
chain: SSRTRFTDYQLRVLQDFFDTNAYPKDDEIEQLSTVLNLPTRVIVVWFQNARQKARK

Variants of: B1
Test: abundance fitness (aPCA) (normalised: wild type 0, dead -1); higher = more abundant; growth selection in yeast, the domain comes from the species named
Conditions: Homo sapiens

Variant | abundance fitness
RCWTEQETLLLLEALEMYKDDWNKVSEHVGSRTQDECILHFLR [E2C] | -0.52 ± 0.18
RAWTEQETLLLLEALEMYKDDWNKVSEHVGSRTQDECILHFLR [E2A] | 0.077 ± 0.058
RPWTEQETLLLLEALEMYKDDWNKVSEHVGSRTQDECILHFLR [E2P] | 0.278 ± 0.12
RNWTEQETLLLLEALEMYKDDWNKVSEHVGSRTQDECILHFLR [E2N] | 0.317 ± 0.092
RDWTEQETLLLLEALEMYKDDWNKVSEHVGSRTQDECILHFLR [E2D] | 0.56 ± 0.11
REWDEQETLLLLEALEMYKDDWNKVSEHVGSRTQDECILHFLR [T4D] | -0.608 ± 0.19
REWVEQETLLLLEALEMYKDDWNKVSEHVGSRTQDECILHFLR [T4V] | -0.552 ± 0.081
REWEEQETLLLLEALEMYKDDWNKVSEHVGSRTQDECILHFLR [T4E] | -0.042 ± 0.13
REWYEQETLLLLEALEMYKDDWNKVSEHVGSRTQDECILHFLR [T4Y] | -0.307 ± 0.31
REWIEQETLLLLEALEMYKDDWNKVSEHVGSRTQDECILHFLR [T4I] | 0.029 ± 0.24
REWNEQETLLLLEALEMYKDDWNKVSEHVGSRTQDECILHFLR [T4N] | 0.18 ± 0.092
REWFEQETLLLLEALEMYKDDWNKVSEHVGSRTQDECILHFLR [T4F] | -0.32 ± 0.45
REWWEQETLLLLEALEMYKDDWNKVSEHVGSRTQDECILHFLR [T4W] | -0.623 ± 0.14
REWGEQETLLLLEALEMYKDDWNKVSEHVGSRTQDECILHFLR [T4G] | -0.794 ± 0.24
REWLEQETLLLLEALEMYKDDWNKVSEHVGSRTQDECILHFLR [T4L] | -0.247 ± 0.1
REWAEQETLLLLEALEMYKDDWNKVSEHVGSRTQDECILHFLR [T4A] | -0.309 ± 0.084
REWMEQETLLLLEALEMYKDDWNKVSEHVGSRTQDECILHFLR [T4M] | 0.142 ± 0.12
REWCEQETLLLLEALEMYKDDWNKVSEHVGSRTQDECILHFLR [T4C] | -0.705 ± 0.17
REWSEQETLLLLEALEMYKDDWNKVSEHVGSRTQDECILHFLR [T4S] | 0.056 ± 0.067

Variant | abundance fitness
REWREQETLLLLEALEMYKDDWNKVSEHVGSRTQDECILHFLR [T4R] | -0.305 ± 0.11
REWTTQETLLLLEALEMYKDDWNKVSEHVGSRTQDECILHFLR [E5T] | 0.004 ± 0.092
REWTMQETLLLLEALEMYKDDWNKVSEHVGSRTQDECILHFLR [E5M] | -0.026 ± 0.16
REWTQQETLLLLEALEMYKDDWNKVSEHVGSRTQDECILHFLR [E5Q] | 0.164 ± 0.24
REWTNQETLLLLEALEMYKDDWNKVSEHVGSRTQDECILHFLR [E5N] | -0.362 ± 0.097
REWTAQETLLLLEALEMYKDDWNKVSEHVGSRTQDECILHFLR [E5A] | -0.227 ± 0.11
REWTCQETLLLLEALEMYKDDWNKVSEHVGSRTQDECILHFLR [E5C] | -0.104 ± 0.074
REWTYQETLLLLEALEMYKDDWNKVSEHVGSRTQDECILHFLR [E5Y] | 0.116 ± 0.12
REWTRQETLLLLEALEMYKDDWNKVSEHVGSRTQDECILHFLR [E5R] | -0.339 ± 0.091
REWTHQETLLLLEALEMYKDDWNKVSEHVGSRTQDECILHFLR [E5H] | -0.153 ± 0.084
REWTLQETLLLLEALEMYKDDWNKVSEHVGSRTQDECILHFLR [E5L] | -0.442 ± 0.086
REWTDQETLLLLEALEMYKDDWNKVSEHVGSRTQDECILHFLR [E5D] | -0.692 ± 0.32
REWTPQETLLLLEALEMYKDDWNKVSEHVGSRTQDECILHFLR [E5P] | -0.39 ± 0.079
REWTWQETLLLLEALEMYKDDWNKVSEHVGSRTQDECILHFLR [E5W] | -0.201 ± 0.2
REWTIQETLLLLEALEMYKDDWNKVSEHVGSRTQDECILHFLR [E5I] | -0.178 ± 0.12
REWTFQETLLLLEALEMYKDDWNKVSEHVGSRTQDECILHFLR [E5F] | -0.347 ± 0.13
REWTVQETLLLLEALEMYKDDWNKVSEHVGSRTQDECILHFLR [E5V] | -0.189 ± 0.063
REWTSQETLLLLEALEMYKDDWNKVSEHVGSRTQDECILHFLR [E5S] | -0.506 ± 0.078

Variants of: B2
Test: as above
Conditions: Homo sapiens

Variant | abundance fitness
SSRTRFTDYQLRVLQDFFDTNAYPKDDEIEQLSTVLNLPTRVIVVWFQNARQKARI [K56I] | -0.238 ± 0.38
SSRTRFTDYQLRVLQDFFDTNAYPKDDEIEQLSTVLNLPTRVIVVWFQNARQKARP [K56P] | 0.04 ± 0.38
SSRTRFTDYQLRVLQDFFDTNAYPKDDEIEQLSTVLNLPTRVIVVWFQNARQKART [K56T] | 0.029 ± 0.24
SSRTRFTDYQLRVLQDFFDTNAYPKDDEIEQLSTVLNLPTRVIVVWFQNARQKARN [K56N] | -0.248 ± 0.18
SSRTRFTDYQLRVLQDFFDTNAYPKDDEIEQLSTVLNLPTRVIVVWFQNARQKARD [K56D] | -0.06 ± 0.23
SSRTRFTDYQLRVLQDFFDTNAYPKDDEIEQLSTVLNLPTRVIVVWFQNARQKARC [K56C] | -0.27 ± 0.27
SSRTRFTDYQLRVLQDFFDTNAYPKDDEIEQLSTVLNLPTRVIVVWFQNARQKARL [K56L] | -0.33 ± 0.37
SSRTRFTDYQLRVLQDFFDTNAYPKDDEIEQLSTVLNLPTRVIVVWFQNARQKARQ [K56Q] | -0.178 ± 0.27
SSRTRFTDYQLRVLQDFFDTNAYPKDDEIEQLSTVLNLPTRVIVVWFQNARQKARS [K56S] | -0.366 ± 0.15
SSRTRFTDYQLRVLQDFFDTNAYPKDDEIEQLSTVLNLPTRVIVVWFQNARQKARY [K56Y] | 0.061 ± 0.21
SSRTRFTDYQLRVLQDFFDTNAYPKDDEIEQLSTVLNLPTRVIVVWFQNARQKARM [K56M] | -0.079 ± 0.24
SSRTRFTDYQLRVLQDFFDTNAYPKDDEIEQLSTVLNLPTRVIVVWFQNARQKARG [K56G] | -0.038 ± 0.19
SSRTRFTDYQLRVLQDFFDTNAYPKDDEIEQLSTVLNLPTRVIVVWFQNARQKARR [K56R] | -0.188 ± 0.14
SSRTRFTDYQLRVLQDFFDTNAYPKDDEIEQLSTVLNLPTRVIVVWFQNARQKARE [K56E] | -0.547 ± 0.29
SSRTRFTDYQLRVLQDFFDTNAYPKDDEIEQLSTVLNLPTRVIVVWFQNARQKARH [K56H] | -0.012 ± 0.23
SSRTRFTDYQLRVLQDFFDTNAYPKDDEIEQLSTVLNLPTRVIVVWFQNARQKAVK [R55V] | -0.161 ± 0.12
SSRTRFTDYQLRVLQDFFDTNAYPKDDEIEQLSTVLNLPTRVIVVWFQNARQKAWK [R55W] | -0.286 ± 0.14
SSRTRFTDYQLRVLQDFFDTNAYPKDDEIEQLSTVLNLPTRVIVVWFQNARQKAYK [R55Y] | 0.176 ± 0.39
SSRTRFTDYQLRVLQDFFDTNAYPKDDEIEQLSTVLNLPTRVIVVWFQNARQKATK [R55T] | 0.004 ± 0.19
SSRTRFTDYQLRVLQDFFDTNAYPKDDEIEQLSTVLNLPTRVIVVWFQNARQKASK [R55S] | -0.069 ± 0.14

Source: the Human Domainome abundance scans (Beltran et al. 2025)
